From publication PMC12238530, “Dynamic SAS-6 phosphorylation aids centrosome duplication and elimination in C. elegans oogenesis” (EMBO Reports, 2025) come the findings set out here.

One experiment has as its target T1, GST-SAS-6(∆N) (C. elegans, UniProt O62479 171-492).
T1 construct: SAS-6, C. elegans, N-terminal head domain deleted (∆1–170), so residues 171-492; also called GST-SAS-6-ΔN; source: E. coli BL21 (DE3), purified (Glutathione Sepharose 4B); not shown: GST, N-terminal, kept
T1 sequence (looked up): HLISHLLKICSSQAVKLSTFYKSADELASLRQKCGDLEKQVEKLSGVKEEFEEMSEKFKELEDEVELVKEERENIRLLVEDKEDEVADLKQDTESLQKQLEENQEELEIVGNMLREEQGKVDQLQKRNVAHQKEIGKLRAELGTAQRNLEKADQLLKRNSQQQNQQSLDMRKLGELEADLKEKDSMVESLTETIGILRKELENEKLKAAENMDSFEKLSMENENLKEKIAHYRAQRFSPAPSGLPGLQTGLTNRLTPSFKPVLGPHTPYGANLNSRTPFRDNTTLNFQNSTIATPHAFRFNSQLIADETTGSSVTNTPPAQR
The experiment in a line: bead recruitment assay; GST-SAS-6 FL or truncations coupled to agarose beads; recruitment of mCherry-His tagged SAS-6 C-terminus seen by fluorescence (Fig. 5B, 5E). As to conditions: both partners purified.

In experiment [1] the target is T2, GST-SAS-6 full-length (FL) (C. elegans, UniProt O62479 1-492).
T2 construct: SAS-6, C. elegans, full length (1-492); pGEX6P1-GST vector; also called full-length SAS-6 coupled to beads; source: E. coli BL21 (DE3), purified (Glutathione Sepharose 4B); not shown: GST, N-terminal, kept
T2 sequence (looked up): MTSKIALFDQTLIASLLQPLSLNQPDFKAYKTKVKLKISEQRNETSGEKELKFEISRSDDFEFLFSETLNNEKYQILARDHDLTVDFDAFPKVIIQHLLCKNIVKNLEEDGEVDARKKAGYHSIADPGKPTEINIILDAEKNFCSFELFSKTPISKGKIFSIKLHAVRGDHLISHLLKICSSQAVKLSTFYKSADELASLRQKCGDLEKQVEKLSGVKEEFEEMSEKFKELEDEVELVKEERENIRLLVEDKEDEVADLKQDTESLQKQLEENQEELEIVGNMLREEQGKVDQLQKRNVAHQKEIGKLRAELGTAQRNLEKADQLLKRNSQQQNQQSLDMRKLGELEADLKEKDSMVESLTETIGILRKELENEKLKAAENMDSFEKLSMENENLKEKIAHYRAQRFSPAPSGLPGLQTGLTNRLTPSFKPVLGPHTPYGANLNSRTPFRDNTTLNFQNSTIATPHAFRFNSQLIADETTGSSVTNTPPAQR
Briefly: pull-down; GST pulldown of purified His-tagged SAS-6 proteins by purified GST-SAS-6 FL or truncations, with or without pre-phosphorylation by CDK1; α-His immunoblot and CBB staining (Fig. 5A, 5C, 5D). The note with it: both partners purified.

B1: SAS-6-C-mCherry-His (domain or fragment, C. elegans, UniProt O62479 401-492, looked up)
chain: HYRAQRFSPAPSGLPGLQTGLTNRLTPSFKPVLGPHTPYGANLNSRTPFRDNTTLNFQNSTIATPHAFRFNSQLIADETTGSSVTNTPPAQR
notes: SAS-6, C. elegans, C-terminal unstructured region, residues 401-492; Cloned in pET.28a-mCherry; the primer's vector part encodes LFQGP before the NdeI site, so a further N-terminal tag may be there; also called mCherry-His tagged SAS-6 C-terminus; SAS-6 C-terminus; source: E. coli BL21 (DE3), purified (Ni-NTA); not shown: mCherry, C-terminal, kept; His, C-terminal, kept
Consider B1, for which the binding result (in the experiment with GST-SAS-6(∆N); in experiment [1]) was “binds” each time.
